# Source: patent US20240352438A1, “MEANS AND METHODS FOR DETOXIFYING OCHRATOXIN A” (DSM Austria GmbH, priority 2021, published 2024)
# Substitutions are numbered along the chain they refer to.
# B1: 226 (protein)
# chain: MTTRTRILTAFLSLLAANACAADAAPAAPHTVVLRAARMFDGASGKLVDHPQLTIVGNKIVRIAQGDKAEVPAGAEVVDLGDATLLPGFIDAHVHLSGQSSDNWYGDFFDNMMRFPAEQALYGAYYARITLEAGFTSVRDVGSTDWVALGLRNAIDAGKVPGPRMLVSNYAVGSTGGHADQDPIPPHKLPLAGPLQGVCNGPEECRAAVRYQIKYGANVIKFMPSPGVLSLSDPVDAPELSQDEMNAVIGESHAWGRKVAAHAHGDKAAKMAVAAGVDSIEHGSFIEDDTLRAMKAKNVYLVPTISAIAHVEEKIGTFPPVIAEKGRAAAAHLRQTFRHAVQIGVPIALGTDAGVGAHGSNAREFRYMVENGLTPAQALLAGTANAARLLGTFDRVGTLEAGKLADVVAVPGNPIADITVTERPLFVMKDGVVVRRDAVR
# modifications: exemplary polypeptide
# B2: 283 (protein)
# chain: B1 chain with P226G, V235D
# modifications: exemplary polypeptide
# B3: 86 (protein)
# chain: B1 chain with P226G, A307T
# modifications: exemplary polypeptide
# B4: 229 (protein)
# chain: B1 chain with P226G, S230P
# modifications: exemplary polypeptide
# B5: 236 (protein)
# chain: B1 chain with P226G, S284D
# modifications: exemplary polypeptide
# B6: 228 (protein)
# chain: B1 chain with P226G, S230D
# modifications: exemplary polypeptide
# B7: 254 (protein)
# chain: B1 chain with D110K, K188D, P226G
# modifications: exemplary polypeptide
# B8: 314 (protein)
# chain: B1 chain with P226G, I308V, L333I
# modifications: exemplary polypeptide
# B9: 233 (protein)
# chain: B1 chain with P226G, D233S
# modifications: exemplary polypeptide
# B10: 257 (protein)
# chain: B1 chain with P226G, S284D, A329S
# modifications: exemplary polypeptide
# B11: 249 (protein)
# chain: B1 chain with P226G, H358A
# modifications: exemplary polypeptide
# B12: 302 (protein)
# chain: B1 chain with P226G, G354P, V355L
# modifications: exemplary polypeptide
# B13: 276 (protein)
# chain: B1 chain with G176S, P226G
# modifications: exemplary polypeptide
# B14: 263 (protein)
# chain: B1 chain with Y105N, P226G
# modifications: exemplary polypeptide
# B15: 251 (protein)
# chain: B1 chain with P226G, H358N
# modifications: exemplary polypeptide
# B16: 298 (protein)
# chain: B1 chain with P226G, G354A, G356Y
# modifications: exemplary polypeptide
# B17: 65 (protein)
# chain: B1 chain with P226G, N361W
# modifications: exemplary polypeptide
# B18: 252 (protein)
# chain: B1 chain with P226G, N361E
# modifications: exemplary polypeptide
# B19: 264 (protein)
# chain: B1 chain with Y105R, P226G
# modifications: exemplary polypeptide
# B20: 258 (protein)
# chain: B1 chain with P226G, S284D, A329T
# modifications: exemplary polypeptide
# B21: 277 (protein)
# chain: B1 chain with A192L, P226G
# modifications: exemplary polypeptide
# B22: 271 (protein)
# chain: B1 chain with M113R, P226G
# modifications: exemplary polypeptide
# B23: 293 (protein)
# chain: B1 chain with P226G, I308V, A329V
# modifications: exemplary polypeptide
# B24: 250 (protein)
# chain: B1 chain with P226G, H358K
# modifications: exemplary polypeptide
# B25: 265 (protein)
# chain: B1 chain with G106P, P226G
# modifications: exemplary polypeptide
# B26: 279 (protein)
# chain: B1 chain with A192V, P226G
# modifications: exemplary polypeptide
# B27: 278 (protein)
# chain: B1 chain with A192M, P226G
# modifications: exemplary polypeptide
# B28: 266 (protein)
# chain: B1 chain with D107R, P226G
# modifications: exemplary polypeptide
# Assay: OTA detoxification activity assay (specific activity, fluorescence reduction ex/em 390/450 nm)
# Type: biochemical
# Conditions: pH 6.0; SEQ ID NO: 1 = 100%
# Description: To determine the specific activity of recombinant target polypeptides produced e.g. as described in Example 2 above in units per liter (U/L), ochratoxin A (OTA) detoxification activity assays were performed. One unit is defined as the amount of enzyme necessary for degradation of 1 μmol or OTA in 1 min when using a starting OTA concentration of […].
# OTA detoxification activity assays were set up in a final volume of the reaction mixture of […], containing the recombinant enzyme preparation (preferably diluted to yield a volumetric activity of 1-10 mU/L), and 200 ng/mL OTA in 100 mM sodium phosphate buffer.
# Specific activities were determined at pH 6.0 and pH 7.5. As soon as all components of the reaction mixture were mixed, OTA degradation was followed at 37° C. on a fluorescence spectrophotometer (BioTek Synergy H1 MFD Multimode microplate reader) by following the reduction in fluorescence at ex/em 390 nm/450 nm. For work performed at pH 6.0 and 7.5, a 100 mM sodium phosphate buffer was used.
# For calculation of the specific activity, the initial linear part of the recorded fluorescence reduction curve was used. In addition to the fluorescence-based method described above, OTA degradation was also determined by using the HPLC-MS method as described by Dellafiora et al. 2020, Toxins 12, 258, essentially confirming the fluorescence-based results. Genes encoding either of the indicated SEQ ID NOs are expressed as described herein and the specific activities for the obtained polypeptide preparation are exemplarily shown in Table 8. Analogously, enzymatic activities using either ochratoxin B, C or TA as substrate or can be found.
row,Molecule,"Specific OTA detoxification activities in % compared to the enzyme of SEQ ID NO: 1, pH 6.0 [%]"
1,B1,19
2,B2,29
3,B3,4
4,B4,21
5,B5,19
6,B6,23
7,B7,32
8,B8,71
9,B9,11
10,B10,34
11,B11,21
12,B12,26
13,B13,13
14,B14,19
15,B15,53
16,B16,15
17,B17,4
18,B18,32
19,B19,46
20,B20,29
21,B21,6
22,B22,6
23,B23,16
24,B24,17
25,B25,20
26,B26,23
27,B27,32
28,B28,11

# Same assay, conditions: pH 7.5; SEQ ID NO: 1 = 100%
row,Molecule,"Specific OTA detoxification activities in % compared to the enzyme of SEQ ID NO: 1, pH 7.5 [%]"
1,B1,22
2,B2,23
3,B3,9
4,B4,15
5,B5,15
6,B6,19
7,B7,15
8,B8,33
9,B9,17
10,B10,15
11,B11,26
12,B12,23
13,B13,30
14,B14,11
15,B15,33
16,B16,17
17,B17,10
18,B18,13
19,B19,44
20,B20,25
21,B21,14
22,B22,23
23,B23,18
24,B24,21
25,B25,11
26,B26,36
27,B27,19
28,B28,22
